These are literature values, as cited in US6329011A, “Antimicrobial agent against acid-resistant and heat-resistant bacteria” (Director General of Shikoku National Agricultural …, priority 2000, dated 2001).

For data set [1] the following is noted: heated under acidic conditions at 100° C. for 10 min.
Data set [2] relates to trypsin.
Data set [3] relates to guinea pigs. The note with it: one oral administration, 103 to 229 mg/kg body weight, observation for 7 days.

thionin: the “antimicrobial activity after heating” value in data set [1] is recorded as “does not lose antimicrobial activity”. The “degradation by digestive enzymes such as trypsin” value in data set [2] was “degraded rapidly”. Moreover, in data set [3], the “abnormalities after oral administration” value is on record as “did not result in detection of any abnormalities”.
